Test results from patent publication CN105524171A (UNIV PLA 3RD MILITARY MEDICAL, dated 2016).

Key:
[1] = target: T1, PSMA胞外区蛋白 (重组表达的前列腺特异性膜抗原膜外区) (UniProt Q04609 44-750); assay: indirect phage ELISA, PSMA extracellular domain coated at 5 μg/mL, HRP-anti-M13 detection
T1 construct: extracellular domain; also called PSMA蛋白; PSMA抗原; not shown: His tag from vector pRAG2a (HisTrap purification, detected with His antibody)

[2] = target: T2, 前列腺特异性膜抗原 (PSMA) on LNCaP cells (UniProt Q04609 1-750, limits assumed); assay: cell ELISA (HRP-anti-M13, OD450) and immunofluorescence on fixed LNCaP cells (PSMA+) against MKN45 cells (PSMA-)
T2 construct: whole, on cells; Cells were fixed with 4% paraformaldehyde before the assay; also called prostate specific membrane antigen
T2 sequence (Q04609 whole entry): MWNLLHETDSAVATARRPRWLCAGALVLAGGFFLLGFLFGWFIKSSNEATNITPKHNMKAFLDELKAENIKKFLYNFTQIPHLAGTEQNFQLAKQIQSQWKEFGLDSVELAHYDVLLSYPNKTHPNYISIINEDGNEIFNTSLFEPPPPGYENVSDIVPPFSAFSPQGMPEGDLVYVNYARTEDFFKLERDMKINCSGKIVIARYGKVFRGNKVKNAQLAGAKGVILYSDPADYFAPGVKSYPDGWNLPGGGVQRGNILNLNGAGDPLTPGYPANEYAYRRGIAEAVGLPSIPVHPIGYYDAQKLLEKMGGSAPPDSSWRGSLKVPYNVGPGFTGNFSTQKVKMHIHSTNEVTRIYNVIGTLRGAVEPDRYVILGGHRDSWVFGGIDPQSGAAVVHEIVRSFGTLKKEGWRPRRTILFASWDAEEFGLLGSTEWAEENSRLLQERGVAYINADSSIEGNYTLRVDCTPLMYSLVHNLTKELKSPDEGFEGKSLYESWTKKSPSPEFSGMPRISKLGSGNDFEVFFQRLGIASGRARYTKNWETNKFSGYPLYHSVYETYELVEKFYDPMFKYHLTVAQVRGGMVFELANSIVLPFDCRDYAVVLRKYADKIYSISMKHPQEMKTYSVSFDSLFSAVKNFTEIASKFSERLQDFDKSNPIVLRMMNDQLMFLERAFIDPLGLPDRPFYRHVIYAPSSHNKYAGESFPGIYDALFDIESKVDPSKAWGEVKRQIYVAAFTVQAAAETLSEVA

T1 sequence (Q04609 44-750): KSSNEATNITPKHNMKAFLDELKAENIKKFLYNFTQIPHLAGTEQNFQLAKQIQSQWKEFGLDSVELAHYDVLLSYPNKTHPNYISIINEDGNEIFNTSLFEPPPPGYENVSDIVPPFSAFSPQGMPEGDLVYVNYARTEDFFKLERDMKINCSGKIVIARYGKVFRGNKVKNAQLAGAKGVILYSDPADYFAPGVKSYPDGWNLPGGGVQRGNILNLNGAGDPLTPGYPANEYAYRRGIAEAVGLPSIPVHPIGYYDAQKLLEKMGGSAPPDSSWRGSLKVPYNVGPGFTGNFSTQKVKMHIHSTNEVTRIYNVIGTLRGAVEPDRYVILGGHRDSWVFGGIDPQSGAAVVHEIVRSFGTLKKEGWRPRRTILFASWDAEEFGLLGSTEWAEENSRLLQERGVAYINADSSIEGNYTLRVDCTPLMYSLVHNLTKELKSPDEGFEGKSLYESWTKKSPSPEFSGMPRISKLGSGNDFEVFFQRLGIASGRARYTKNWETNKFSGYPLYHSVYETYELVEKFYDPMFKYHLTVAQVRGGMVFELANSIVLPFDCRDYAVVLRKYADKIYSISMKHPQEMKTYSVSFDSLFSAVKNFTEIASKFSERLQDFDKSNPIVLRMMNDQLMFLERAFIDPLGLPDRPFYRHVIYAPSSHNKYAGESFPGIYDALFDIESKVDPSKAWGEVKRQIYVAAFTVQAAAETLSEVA

binding result [1]: binds
binding result [2]: binds
B1: 抗前列腺特异性膜抗原单域重链抗体噬菌体阳性克隆 (VHH, not shown: large carriers)
VHH: QLQLVESGGGLVQAGGSLRLSCVVSGRPFSRYTMGWFRQAPGKERELVATIWRRGNTYYANYADAVTGRFTISRDNAKNTAYLQMNSLELEDTAIYYCAAGRTSWGQNPSEYGYWGQGTQVTVSS
notes: also called 针对前列腺特异性膜抗原的单域重链抗体阳性克隆; 展示本发明所述纳米抗体的噬菌体克隆
